Measured values as given in the supplement of paper PMC10126150.
± gives the standard deviation of the averaged measurements.

System: ATP
Assay: switch fluorescence ratio, 500 uM ATP over buffer (Cy3 cluster intensity, sum of 5 cycles each) (fold (ratio)); higher = stronger signal-on switching upon ATP binding; sequences stand for … in TCGTCGGCAGCGTCAGATGTGTATAAGAGACAGTTTTTTTTTTTTTTTTTTTTTTTTT…TC
Settings: aptamer strand: ATP DNA aptamer (quencher-CACCTGGGGGAGTATTGCGGAGGAAGG + anchor), 100 nM annealed; ATP concentration: 500 uM
How it was run: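 Between each of five buffer/ATP cycles, the flow-cell was stripped with NaOH and re-annealed. Each cycle imaged Cy3-labelled switching-strand clusters, annealed to 100 nM quencher-labelled ATP aptamer on a modified Illumina MiSeq flow-cell, first in selection buffer and then after 15 min with 500 uM ATP at 22 °C. The fluorescence ratio is summed target-cycle over summed buffer-cycle Cy3 intensity per cluster, averaged per switch-domain sequence, with clusters outside 100-1000 RFU excluded.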
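Also: ATP exposure 15 min at 22 °C before imaging.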

Sequence | switch fluorescence ratio
TGTGGGGGGG | 1.01 ± 0.045
TGTGGGGTCT | 1.02 ± 0.038
TGTGGGGTGT | 1.039 ± 0.0096
TGTGGGTTGG | 0.956 ± 0.018
TGTGGGTTTG | 0.958 ± 0.012
TGTGGGTTTT | 1.02 ± 0.056
TGTGGTATAT | 0.993 ± 0.024
TGTGGTCTGA | 1.01 ± 0.09
TGTGGTCTGT | 0.981 ± 0.033
TGTGGTGCAG | 1 ± 0.042
TGTGGTGGC | 0.995 ± 0.019
TGTGGTGGGC | 0.967 ± 0.0012
TGTGGTGTTT | 0.984 ± 0.036
TGTGGTTTTT | 1.01 ± 0.031
TGTGTAAGGG | 1.02 ± 0.029
TGTGTACAGG | 0.978 ± 0.017
TGTGTACCG | 1.01 ± 0.065
TGTGTCACCT | 1.09 ± 0.025
TGTGTGCGGC | 1 ± 0.028
TGTGTGTGGA | 1.04 ± 0.03
TGTGTGTTTT | 1.01 ± 0.027
TGTGTTCCAA | 1.002 ± 0.0047
TGTGTTGTCA | 1.01 ± 0.011
TGTGTTTACT | 0.991 ± 0.022
TGTGTTTTAG | 0.976 ± 0.015

Sequence | switch fluorescence ratio
TGTGTTTTTA | 1.006 ± 0.0016
TGTTAAAAAA | 1.01 ± 0.02
TGTTAAATGA | 0.97 ± 0.013
TGTTAACGGT | 0.991 ± 0.071
TGTTAAGGGG | 1.18 ± 0.21
TGTTACAGAG | 1.01 ± 0.052
TGTTACGGAG | 1.009 ± 0.0042
TGTTACGTTT | 0.992 ± 0.021
TGTTAGAATC | 0.963 ± 0.012
TGTTAGGAAT | 1 ± 0.021
TGTTAGGTAG | 1.01 ± 0.011
TGTTAGTAAT | 1.019 ± 0.0087
TGTTATACAT | 1.01 ± 0.024
TGTTATAGAC | 1.05 ± 0.041
TGTTATATGT | 1.01 ± 0.012
TGTTATTCAT | 0.985 ± 0.041
TGTTATTGTT | 1.03 ± 0.012
TGTTATTTGA | 0.996 ± 0.0056
TGTTCGAGGG | 1.02 ± 0.059
TGTTGAATTT | 0.958 ± 0.016
TGTTGAGCTC | 0.9936 ± 0.0084
TGTTGCAATT | 1.01 ± 0.052
TGTTGCATAA | 0.968 ± 0.016
TGTTGCGCTA | 1.02 ± 0.029
TGTTGCGTTG | 0.954 ± 0.039

Sequence | switch fluorescence ratio
TGTTGCTCCA | 1.05 ± 0.082
TGTTGCTGGG | 1 ± 0.026
TGTTGGCAGG | 1.02 ± 0.012
TGTTGGGAAC | 1.07 ± 0.12
TGTTGGGATT | 0.998 ± 0.016
TGTTGGGGCT | 0.999 ± 0.04
TGTTGGTATG | 0.976 ± 0.038
TGTTGGTGGT | 0.988 ± 0.036
TGTTGTAAGT | 0.984 ± 0.026
TGTTGTAGAA | 0.973 ± 0.013
TGTTGTAGTC | 0.965 ± 0.017
TGTTGTGGTC | 0.9804 ± 0.0042
TGTTGTGTTT | 0.989 ± 0.033
TGTTGTTACC | 1.04 ± 0.022
TGTTTAAGGG | 1 ± 0.021
TGTTTATCAT | 0.978 ± 0.017
TGTTTATTTT | 0.982 ± 0.025
TGTTTCATTC | 0.978 ± 0.012
TGTTTCCCGT | 1 ± 0.022
TGTTTCTACG | 1 ± 0.056
TGTTTGACGA | 0.991 ± 0.05
TGTTTGAGAT | 1.01 ± 0.015
TGTTTGAGGC | 0.997 ± 0.044
TGTTTGATAT | 0.9917 ± 0.005
TGTTTGGGCC | 1.03 ± 0.011

Sequence | switch fluorescence ratio
TGTTTGGTGT | 0.9948 ± 0.005
TGTTTGTGTT | 0.977 ± 0.013
TGTTTGTTAG | 1.04 ± 0.048
TGTTTTAAGT | 0.999 ± 0.036
TGTTTTAATT | 0.99 ± 0.021
TGTTTTACGA | 1.07 ± 0.043
TGTTTTAGGA | 0.993 ± 0.015
TGTTTTGCGG | 0.9696 ± 0.0063
TGTTTTGGAG | 1 ± 0.032
TGTTTTGGGC | 0.992 ± 0.033
TGTTTTGTGT | 1.035 ± 0.0073
TGTTTTGTTT | 0.995 ± 0.013
TGTTTTTAAA | 0.979 ± 0.029
TGTTTTTAAG | 0.99 ± 0.022
TGTTTTTAGC | 1.0151 ± 0.00055
TGTTTTTGGC | 1 ± 0.025
TGTTTTTTGA | 0.99 ± 0.011
TTAAAAAAAG | 1.01 ± 0.019
TTAAAAAGG | 1.02 ± 0.037
TTAAAAAGTT | 1 ± 0.031
TTAAAAATTG | 0.957 ± 0.016
TTAAAACCGT | 1.02 ± 0.029
TTAAAACGAA | 1.01 ± 0.024
TTAAAACGGG | 0.969 ± 0.037
TTAAAATATC | 0.99948 ± 0.00018
